Biological target: biotinylated preS1 peptide 79–108 carrying 89D and 90K (hepatitis B virus (residues numbered …, biotin (position not stated for this peptide)))
Assay: pull-down; 2 µM biotinylated preS1 peptide on Dynabeads MyOne Streptavidin T1, incubated with 2 µg purified protein 1 h at 37°C, washed with PBS 0.01% Tween 20, Western blot (anti-HA or anti-human IgG1); the paper calls it immunoprecipitation (IP-Western)
Conditions: both partners purified

B1: sEGF4–6-hFc (soluble fusion protein comprising SCARF2's EGF4–6 domains, with an N-terminal HA tag and a C-terminal human IgG1 Fc tag) (Fc fusion)
chain: GSYPYDVPDYAGSSACYCSATSRCDPQTGACLCHAGWWGRSCNNQCACNSSPCEQQSGRCQCRERTFGARCDRYCQCFRGRCHPVDGTCACEPGYRGKYCR
fold efficiency of precipitation against preS1 79–108 QT and QS peptides: ~2 fold

From paper doi:10.1101/2025.06.13.659407, “Scavenger Receptor class F member 2 is an intracellular receptor for Hepatitis B virus” (bioRxiv, 2025)
